Laboratory results: paper PMC4842197, “Preclinical in vivo application of ^152Tb-DOTANOC: a radiolanthanide for PET imaging” (EJNMMI Research, 2016)
Bridge positions count the residues as written; N and C are the ends. Square brackets hold non-standard residues; d marks the D form. Peptide text beside a SMILES is read from it. * marks the point of attachment. DOTA = O=C(O)CN1CCN(CC(=O)O)CCN(CC(=O)*)CCN(CC(=O)O)CC1; 1Nal = N[C@@H](Cc1cccc2ccccc12)C(=O)O; Thr(ol) = C[C@@H](O)[C@H](N)CO

Experiments:
in vivo = details: female, CD-1 Foxn-1/nu nude, mouse, iv, total radioactivity, Biodistribution
Procedure: (§1) AR42J tumor cells, a rat exocrine pancreatic tumor cell line which is known to express the somatostatin receptor, were obtained from the European Collection of Cell Cultures (ECACC). The cells were cultured in RPMI 1640 medium, supplemented with 10 % fetal calf serum, L-glutamine, and antibiotics under standard conditions in a humidified atmosphere with 5 % CO2 at 37 °C. Routine culture was performed by trypsinization of the cells twice a week. To inoculate the animals, the cells were detached using trypsin, centrifuged, and resuspended in PBS at a concentration of 5 × 10^6 cells/100 μL.
(§2) In vivo experiments were approved by the local veterinary department and conducted in accordance with the Swiss law of animal protection. Female nude mice (CD-1 Foxn-1/nu) were purchased from Charles River Laboratories (Sulzfeld, Germany). The animals were fed with a standard rodent chow ad libitum (Kliba Nafag, Kaiseraugst, Switzerland).
(§3) About 2 weeks prior to biodistribution and imaging studies, the mice were inoculated with AR42J tumor cells by subcutaneous injection of the cell suspension (5 × 10^6 cells/100 μL) on each shoulder.
(§4) Mice were euthanized at pre-determined time points between 30 min and 22 h after injection of the radioconjugate. […] Selected tissues and organs were collected, weighed, and counted for radioactivity using a γ-counter (Packard Canberra Cobra II, USA). The results were listed as a percentage of the injected activity per gram of tissue mass (% IA/g), using counts of a defined volume of the original injection solution measured at the same time.

AR42J tumor-bearing mice = experiment: in vivo; details: female, CD-1 Foxn-1/nu nude, mouse, iv, 5 nmol per mouse, 5 h
Procedure: as §1, §2, §3, §4

[1] = 2.5 nmol per mouse (5 MBq), AR42J tumor
[2] = 2.5 nmol per mouse (5 MBq), Blood
[3] = 2.5 nmol per mouse (5 MBq), Bone
[4] = 2.5 nmol per mouse (5 MBq), Brain
[5] = 2.5 nmol per mouse (5 MBq), Heart
[6] = 2.5 nmol per mouse (5 MBq), Lung

Compound: C[C@@H](O)[C@@H]1NC(=O)[C@H](CCCCN)NC(=O)[C@@H](Cc2c[nH]c3ccccc23)NC(=O)[C@H](Cc2cccc3ccccc23)NC(=O)[C@@H](NC(=O)[C@@H](Cc2ccccc2)NC(=O)CN2CCN(CC(=O)O)CCN(CC(=O)O)CCN(CC(=O)O)CC2)CSSC[C@@H](C(=O)N[C@H](CO)[C@@H](C)O)NC1=O [^177Lu-DOTANOC, metal not drawn] ({DOTA}-[dF]C[1Nal][dW]KTC[Thr(ol)]; disulfide 2-7)
- tissue uptake at 5 h (in vivo; 0.5 nmol peptide, Adrenals): 0.7 ± 0.13 %ID/g
- tissue uptake at 5 h (in vivo; 0.5 nmol peptide, Kidneys): 6.63 ± 0.1 %ID/g
- tissue uptake at 5 h (in vivo; 0.5 nmol peptide, Lung): 1.18 ± 0.36 %ID/g
- tissue uptake at 5 h (in vivo; 0.5 nmol peptide, Spleen): 0.24 ± 0.03 %ID/g
- tissue uptake at 5 h (in vivo; 0.5 nmol per mouse, AR42J Tumor): 25.3 ± 4.14 %ID/g
- tissue uptake at 5 h (in vivo; 0.5 nmol, Blood): 0.09 ± 0.01 %ID/g
- tissue uptake at 5 h (in vivo; 0.5 nmol, Bone): 0.33 ± 0.08 %ID/g
- tissue uptake at 5 h (in vivo; 0.5 nmol, Brain): 0.01 %ID/g
- tissue uptake at 5 h (in vivo; 0.5 nmol, Heart): 0.08 ± 0.01 %ID/g
- tissue uptake at 5 h (in vivo; 0.5 nmol, Liver): 0.34 ± 0.01 %ID/g
- tissue uptake at 5 h (in vivo; 0.5 nmol, Muscle): 0.02 ± 0.01 %ID/g
- tissue uptake at 5 h (in vivo; 0.5 nmol, Stomach): 3.78 ± 0.28 %ID/g
- tissue uptake at 0.5 h (in vivo; [1]): 9.02 ± 0.33 %ID/g
- tissue uptake at 2 h (in vivo; [1]): 8.32 ± 0.47 %ID/g
- tissue uptake at 5 h (in vivo; [1]): 8.45 ± 1.04 %ID/g
- tissue uptake at 16 h (in vivo; [1]): 5.48 ± 0.98 %ID/g
- tissue uptake at 22 h (in vivo; [1]): 4.51 ± 0.37 %ID/g
- tissue uptake at 0.5 h (in vivo; [2]): 2.52 ± 0.65 %ID/g
- tissue uptake at 2 h (in vivo; [2]): 0.09 ± 0.01 %ID/g
- tissue uptake at 5 h (in vivo; [2]): 0.06 ± 0.01 %ID/g
- tissue uptake at 16 h (in vivo; [2]): 0.07 ± 0.01 %ID/g
- tissue uptake at 22 h (in vivo; [2]): 0.03 %ID/g
- tissue uptake at 16 h (in vivo; [3]): 0.12 ± 0.05 %ID/g
- tissue uptake at 22 h (in vivo; [3]): 0.08 ± 0.01 %ID/g
- tissue uptake at 0.5 h (in vivo; [4]): 0.06 ± 0.01 %ID/g
- tissue uptake at 2 h (in vivo; [4]): 0.01 %ID/g
- tissue uptake at 5 h (in vivo; [4]): 0.02 %ID/g
- tissue uptake at 16 h (in vivo; [4]): 0.02 ± 0.01 %ID/g
- tissue uptake at 22 h (in vivo; [4]): 0.01 %ID/g
- tissue uptake at 0.5 h (in vivo; [5]): 1.34 ± 0.35 %ID/g
- tissue uptake at 2 h (in vivo; [5]): 0.08 ± 0.01 %ID/g
- tissue uptake at 5 h (in vivo; [5]): 0.07 ± 0.01 %ID/g
- tissue uptake at 16 h (in vivo; [5]): 0.07 ± 0.01 %ID/g
- tissue uptake at 22 h (in vivo; [5]): 0.03 %ID/g
- tissue uptake at 0.5 h (in vivo; [6]): 3.04 ± 0.47 %ID/g
- tissue uptake at 2 h (in vivo; [6]): 0.45 ± 0.03 %ID/g
- tissue uptake at 5 h (in vivo; [6]): 0.41 ± 0.04 %ID/g
- tissue uptake at 0.5 h (in vivo; 2.5 nmol per mouse, Adrenals): 1.38 ± 0.32 %ID/g
- tissue uptake at 2 h (in vivo; 2.5 nmol per mouse, Adrenals): 0.28 ± 0.14 %ID/g
- tissue uptake at 16 h (in vivo; 2.5 nmol per mouse, Adrenals): 0.51 ± 0.4 %ID/g
- tissue uptake at 22 h (in vivo; 2.5 nmol per mouse, Adrenals): 0.42 ± 0.18 %ID/g
- tissue uptake at 0.5 h (in vivo; 2.5 nmol per mouse, Bone): 1.13 ± 0.26 %ID/g
- tissue uptake at 2 h (in vivo; 2.5 nmol per mouse, Bone): 0.17 ± 0.01 %ID/g
- tissue uptake at 5 h (in vivo; 2.5 nmol per mouse, Bone): 0.12 ± 0.02 %ID/g
- tissue uptake at 0.5 h (in vivo; 2.5 nmol per mouse, Intestines): 0.94 ± 0.12 %ID/g
- tissue uptake at 2 h (in vivo; 2.5 nmol per mouse, Intestines): 0.25 ± 0.04 %ID/g
- tissue uptake at 5 h (in vivo; 2.5 nmol per mouse, Intestines): 0.25 ± 0.03 %ID/g
- tissue uptake at 16 h (in vivo; 2.5 nmol per mouse, Intestines): 0.16 ± 0.01 %ID/g
- tissue uptake at 0.5 h (in vivo; 2.5 nmol per mouse, Kidneys): 13 ± 1.85 %ID/g
- tissue uptake at 2 h (in vivo; 2.5 nmol per mouse, Kidneys): 7.67 ± 0.51 %ID/g
- tissue uptake at 5 h (in vivo; 2.5 nmol per mouse, Kidneys): 9.1 ± 1.66 %ID/g
- tissue uptake at 16 h (in vivo; 2.5 nmol per mouse, Kidneys): 6.13 ± 1.63 %ID/g
- tissue uptake at 22 h (in vivo; 2.5 nmol per mouse, Kidneys): 4.8 ± 0.19 %ID/g
- tissue uptake at 0.5 h (in vivo; 2.5 nmol per mouse, Liver): 1.43 ± 0.17 %ID/g
- tissue uptake at 2 h (in vivo; 2.5 nmol per mouse, Liver): 0.52 ± 0.04 %ID/g
- tissue uptake at 5 h (in vivo; 2.5 nmol per mouse, Liver): 0.53 ± 0.1 %ID/g
- tissue uptake at 16 h (in vivo; 2.5 nmol per mouse, Liver): 0.27 ± 0.05 %ID/g
- tissue uptake at 22 h (in vivo; 2.5 nmol per mouse, Liver): 0.2 ± 0.02 %ID/g
- tissue uptake at 16 h (in vivo; 2.5 nmol per mouse, Lung): 0.27 ± 0.05 %ID/g
- tissue uptake at 0.5 h (in vivo; 2.5 nmol per mouse, Muscle): 0.48 ± 0.16 %ID/g
- tissue uptake at 2 h (in vivo; 2.5 nmol per mouse, Muscle): 0.02 %ID/g
- tissue uptake at 5 h (in vivo; 2.5 nmol per mouse, Muscle): 0.02 ± 0.01 %ID/g
- tissue uptake at 16 h (in vivo; 2.5 nmol per mouse, Muscle): 0.03 %ID/g
- tissue uptake at 22 h (in vivo; 2.5 nmol per mouse, Muscle): 0.01 %ID/g
- tissue uptake at 0.5 h (in vivo; 2.5 nmol per mouse, Pancreas): 1.99 ± 0.07 %ID/g
- tissue uptake at 2 h (in vivo; 2.5 nmol per mouse, Pancreas): 1.09 ± 0.17 %ID/g
- tissue uptake at 5 h (in vivo; 2.5 nmol per mouse, Pancreas): 0.88 ± 0.11 %ID/g
- tissue uptake at 16 h (in vivo; 2.5 nmol per mouse, Pancreas): 0.34 ± 0.05 %ID/g
- tissue uptake at 22 h (in vivo; 2.5 nmol per mouse, Pancreas): 0.25 ± 0.03 %ID/g
- tissue uptake at 0.5 h (in vivo; 2.5 nmol per mouse, Spleen): 0.77 ± 0.03 %ID/g
- tissue uptake at 5 h (in vivo; 2.5 nmol per mouse, Spleen): 0.18 ± 0.02 %ID/g
- tissue uptake at 22 h (in vivo; 2.5 nmol per mouse, Spleen): 0.09 ± 0.01 %ID/g
- tissue uptake at 0.5 h (in vivo; 2.5 nmol per mouse, Stomach): 1.95 ± 0.23 %ID/g
- tissue uptake at 2 h (in vivo; 2.5 nmol per mouse, Stomach): 1.14 ± 0.04 %ID/g
- tissue uptake at 5 h (in vivo; 2.5 nmol per mouse, Stomach): 1.21 ± 0.55 %ID/g
- tissue uptake at 16 h (in vivo; 2.5 nmol per mouse, Stomach): 0.68 ± 0.09 %ID/g
- tissue uptake at 22 h (in vivo; 2.5 nmol per mouse, Stomach): 0.6 ± 0.22 %ID/g
- tissue uptake at 5 h (in vivo; 5 nmol peptide, Adrenals): 0.18 ± 0.05 %ID/g
- tissue uptake at 5 h (in vivo; 5 nmol peptide, Kidneys): 7 ± 0.69 %ID/g
- tissue uptake at 5 h (in vivo; 5 nmol peptide, Lung): 0.28 ± 0.01 %ID/g
- tissue uptake at 5 h (in vivo; 5 nmol peptide, Spleen): 0.11 ± 0.02 %ID/g
- tissue uptake at 5 h (in vivo; 5 nmol per mouse, AR42J Tumor): 3.82 ± 0.2 %ID/g
- tissue uptake at 5 h (in vivo; 5 nmol, Blood): 0.06 ± 0.01 %ID/g
- tissue uptake at 5 h (in vivo; 5 nmol, Bone): 0.09 ± 0.02 %ID/g
- tissue uptake at 5 h (in vivo; 5 nmol, Brain): 0.01 %ID/g
- tissue uptake at 5 h (in vivo; 5 nmol, Heart): 0.06 %ID/g
- tissue uptake at 5 h (in vivo; 5 nmol, Intestines): 0.14 ± 0.01 %ID/g
- tissue uptake at 5 h (in vivo; 5 nmol, Liver): 0.36 ± 0.04 %ID/g
- tissue uptake at 5 h (in vivo; 5 nmol, Muscle): 0.02 %ID/g
- tissue uptake at 5 h (in vivo; 5 nmol, Pancreas): 0.41 ± 0.01 %ID/g
- tissue uptake at 5 h (in vivo; 5 nmol, Stomach): 0.41 ± 0.05 %ID/g
- Biodistribution, AR42J Tumor (AR42J tumor-bearing mice): ~ 4 % IA/g
